Residue numbers refer to the chain shown, from its start. A value given as a limit tells only on which side of the number the result lay.

To fix the notation:
B1: JH2 CAR/LoD/b (other)
chain: QVQLQESGPGLVKPSETLSLTCTVSGGSISSYYWSWIRQPPGKGLEWIGYINNSGSTNYNPSLKSRVTISVDTSKNQFSLKLSSVTAADTAVYYCAREDDYWGQGTLVTVSSGGGGSDIQMTQTTSSLSASLGDRVTISCRASQDISKYLNWYQQKPDGTVKLLIYHTSRLHSGVPSRFSGSGSGTDYSLTISNLEQEDIATYFCQQGNTLPYTFGGGTKLEITGSTSGSGKPGSGEGSTKGEVKLQESGPGLVAPSQSLSVTCTVSGVSLPDYGVSWIRQPPRKGLEWLGVIWGSETTYYNSALKSRLTIIKDNSKSQVFLKMNSLQTDDTAIYYCAKHYYYGGSYAMDYWGQGTSVTVSSGGGGSEIVMTQSPATLSLSPGERATLSCRASQIISSSYLSWYQQKPGQAPRLLIYGASTRATGIPARFSGSGSGTDFTLTISSLQPEDFAVYYCQQDYDFPFTFGPGTKVDIKRESKYGPPCPPCPMFWVLVVVGGVLACYSLLVTVAFIIFWVKRGRKKLLYIFKQPFMRPVQTTQEEDGCSCRFPEEEEGGCELRVKFSRSADAPAYQQGQNQLYNELNLGRREEYDVLDKRRGRDPEMGGKPRRKNPQEGLYNELQKDKMAEAYSEIGMKGERRRGKGHDGLYQGLSTATKDTYDALHMQALPPR
B2: JH2 CAR/LoP (other)
chain: DIQMTQTTSSLSASLGDRVTISCRASQDISKYLNWYQQKPDGTVKLLIYHTSRLHSGVPSRFSGSGSGTDYSLTISNLEQEDIATYFCQQGNTLPYTFGGGTKLEITGGGGSQVQLQESGPGLVKPSETLSLTCTVSGGSISSYYWSWIRQPPGKGLEWIGYINNSGSTNYNPSLKSRVTISVDTSKNQFSLKLSSVTAADTAVYYCAREDDYWGQGTLVTVSSGGGGSGGGGSGGGGSEIVMTQSPATLSLSPGERATLSCRASQIISSSYLSWYQQKPGQAPRLLIYGASTRATGIPARFSGSGSGTDFTLTISSLQPEDFAVYYCQQDYDFPFTFGPGTKVDIKRGGGGSEVKLQESGPGLVAPSQSLSVTCTVSGVSLPDYGVSWIRQPPRKGLEWLGVIWGSETTYYNSALKSRLTIIKDNSKSQVFLKMNSLQTDDTAIYYCAKHYYYGGSYAMDYWGQGTSVTVSSESKYGPPCPPCPMFWVLVVVGGVLACYSLLVTVAFIIFWVKRGRKKLLYIFKQPFMRPVQTTQEEDGCSCRFPEEEEGGCELRVKFSRSADAPAYQQGQNQLYNELNLGRREEYDVLDKRRGRDPEMGGKPRRKNPQEGLYNELQKDKMAEAYSEIGMKGERRRGKGHDGLYQGLSTATKDTYDALHMQALPPR
B3: JH2 CAR/LiD/a (other)
chain: DIQMTQTTSSLSASLGDRVTISCRASQDISKYLNWYQQKPDGTVKLLIYHTSRLHSGVPSRFSGSGSGTDYSLTISNLEQEDIATYFCQQGNTLPYTFGGGTKLEITGSTSGSGKPGSGEGSTKGEVKLQESGPGLVAPSQSLSVTCTVSGVSLPDYGVSWIRQPPRKGLEWLGVIWGSETTYYNSALKSRLTIIKDNSKSQVFLKMNSLQTDDTAIYYCAKHYYYGGSYAMDYWGQGTSVTVSSGGGGSQVQLQESGPGLVKPSETLSLTCTVSGGSISSYYWSWIRQPPGKGLEWIGYINNSGSTNYNPSLKSRVTISVDTSKNQFSLKLSSVTAADTAVYYCAREDDYWGQGTLVTVSSGGGGSGGGGSGGGGSEIVMTQSPATLSLSPGERATLSCRASQIISSSYLSWYQQKPGQAPRLLIYGASTRATGIPARFSGSGSGTDFTLTISSLQPEDFAVYYCQQDYDFPFTFGPGTKVDIKRESKYGPPCPPCPMFWVLVVVGGVLACYSLLVTVAFIIFWVKRGRKKLLYIFKQPFMRPVQTTQEEDGCSCRFPEEEEGGCELRVKFSRSADAPAYQQGQNQLYNELNLGRREEYDVLDKRRGRDPEMGGKPRRKNPQEGLYNELQKDKMAEAYSEIGMKGERRRGKGHDGLYQGLSTATKDTYDALHMQALPPR
B4: JH4 CAR/LiD (other)
chain: B3 chain with P290S, N302H, N303Y, S306N, I405S, I406V, S409N, Y470F
B5: JH1 CAR/LoP (other)
chain: DIQMTQTTSSLSASLGDRVTISCRASQDISKYLNWYQQKPDGTVKLLIYHTSRLHSGVPSRFSGSGSGTDYSLTISNLEQEDIATYFCQQGNTLPYTFGGGTKLEITGGGGSQVQLVQSGAEVKKPGASVKVSCKASGYTFTSYAMHWVRQAPGQRLEWMGWINAGNGNTKYSQKFQGRVTITRDTSASTAYMELRSLRSDDTAVYYCASGPGRLPVVWGQGTLVTVSSGGGGSGGGGSGGGGSSYVLTQPPSVSVAPGKTARITCGGNNIGSKSVHWYQQKPGQAPVLVVYDDSDRPSGIPERFSGSNSGNTATLTISRVEAGDEADYYCQVWDSSSDHVVFGGGTKLTVLGGGGSEVKLQESGPGLVAPSQSLSVTCTVSGVSLPDYGVSWIRQPPRKGLEWLGVIWGSETTYYNSALKSRLTIIKDNSKSQVFLKMNSLQTDDTAIYYCAKHYYYGGSYAMDYWGQGTSVTVSSESKYGPPCPPCPMFWVLVVVGGVLACYSLLVTVAFIIFWVKRGRKKLLYIFKQPFMRPVQTTQEEDGCSCRFPEEEEGGCELRVKFSRSADAPAYQQGQNQLYNELNLGRREEYDVLDKRRGRDPEMGGKPRRKNPQEGLYNELQKDKMAEAYSEIGMKGERRRGKGHDGLYQGLSTATKDTYDALHMQALPPR
B6: JH3 CAR/LoD (other)
chain: EIVMTQSPATLSLSPGERATLSCRASQSVSSNYFSWYQQKPGQAPRLLIYGASTRATGIPARFSGSGSGTDFTLTISSLQPEDFAVYYCQQDYDFPFTFGPGTKVDIKRGGGGSGGGGSDIQMTQTTSSLSASLGDRVTISCRASQDISKYLNWYQQKPDGTVKLLIYHTSRLHSGVPSRFSGSGSGTDYSLTISNLEQEDIATYFCQQGNTLPYTFGGGTKLEITGSTSGSGKPGSGEGSTKGEVKLQESGPGLVAPSQSLSVTCTVSGVSLPDYGVSWIRQPPRKGLEWLGVIWGSETTYYNSALKSRLTIIKDNSKSQVFLKMNSLQTDDTAIYYCAKHYYYGGSYAMDYWGQGTSVTVSSGGGGSGGGGSQVQLQESGPGLVKPSETLSLTCTVSGGSISNYYWSWIRQPPGKGLEWIGYIYYSGSTIYNPSLKSRVTISVDTSKNQFSLKLSSVTAADTAVYYCAGDSSGIDYWGQGTLVTVSSESKYGPPCPPCPMFWVLVVVGGVLACYSLLVTVAFIIFWVKRGRKKLLYIFKQPFMRPVQTTQEEDGCSCRFPEEEEGGCELRVKFSRSADAPAYQQGQNQLYNELNLGRREEYDVLDKRRGRDPEMGGKPRRKNPQEGLYNELQKDKMAEAYSEIGMKGERRRGKGHDGLYQGLSTATKDTYDALHMQALPPR
B7: JH2 CAR/LiD/b (other)
chain: DIQMTQTTSSLSASLGDRVTISCRASQDISKYLNWYQQKPDGTVKLLIYHTSRLHSGVPSRFSGSGSGTDYSLTISNLEQEDIATYFCQQGNTLPYTFGGGTKLEITGSTSGSGKPGSGEGSTKGEVKLQESGPGLVAPSQSLSVTCTVSGVSLPDYGVSWIRQPPRKGLEWLGVIWGSETTYYNSALKSRLTIIKDNSKSQVFLKMNSLQTDDTAIYYCAKHYYYGGSYAMDYWGQGTSVTVSSGGGGSEIVMTQSPATLSLSPGERATLSCRASQIISSSYLSWYQQKPGQAPRLLIYGASTRATGIPARFSGSGSGTDFTLTISSLQPEDFAVYYCQQDYDFPFTFGPGTKVDIKRGGGGSGGGGSGGGGSQVQLQESGPGLVKPSETLSLTCTVSGGSISSYYWSWIRQPPGKGLEWIGYINNSGSTNYNPSLKSRVTISVDTSKNQFSLKLSSVTAADTAVYYCAREDDYWGQGTLVTVSSESKYGPPCPPCPMFWVLVVVGGVLACYSLLVTVAFIIFWVKRGRKKLLYIFKQPFMRPVQTTQEEDGCSCRFPEEEEGGCELRVKFSRSADAPAYQQGQNQLYNELNLGRREEYDVLDKRRGRDPEMGGKPRRKNPQEGLYNELQKDKMAEAYSEIGMKGERRRGKGHDGLYQGLSTATKDTYDALHMQALPPR

In the first assay the target is T1, B-cell activating factor receptor (BAFF-R) (human, UniProt Q96RJ3 1-184). In words: cell-based or functional assay.
As to B1, the “decrease in IFN-γ production with sBAFF, alone or relative to FMC63 scFv alone (JeKo-1 co-culture)” value was at most 20% and the “decrease of IFN-γ with FMC63 scFv + sBAFF compared to the inhibition from FMC63 scFv alone (JeKo-1 co-culture)” value is at most 10%.
On to B2, for which the “decrease in IFN-γ production with FMC63 scFv + sBAFF relative to FMC63 scFv alone (JeKo-1 co-culture)” value is above 50% and the “decrease of IFN-γ with FMC63 scFv + sBAFF compared to the inhibition from FMC63 scFv alone (JeKo-1 co-culture)” value was at most 10%.
As to B3, the “decrease in IFN-γ production with sBAFF, alone or relative to FMC63 scFv alone (JeKo-1 co-culture)” value was at most 20% and the “decrease of IFN-γ with FMC63 scFv + sBAFF compared to the inhibition from FMC63 scFv alone (JeKo-1 co-culture)” value was at most 10%.
The like results for B4 were, in that order, at most 20% and at most 10%.
As to B5, the “decrease in IFN-γ production with FMC63 scFv + sBAFF relative to FMC63 scFv alone (JeKo-1 co-culture)” value is above 50%.
Take B6: the “decrease in IFN-γ production with sBAFF, alone or relative to FMC63 scFv alone (JeKo-1 co-culture)” value is at most 20% and the “decrease of IFN-γ with FMC63 scFv + sBAFF compared to the inhibition from FMC63 scFv alone (JeKo-1 co-culture)” value is at most 10%.
In the same order, the values of B7 are at most 20% and at most 10%.

The target in another assay is T1, B-cell activating factor receptor …. Briefly: cell-based or functional assay. The source holds these as a separate data set.
As to B2, the “inhibition of IFN-γ production by CAR T cells when JeKo-1 target cells were preincubated with both FMC63 scFv and sBAFF (20 µg/mL each), relative to target-only co-culture; legend: ++ = High, >80%” value is above 80%.
Same read-out and setting: to B5 belongs above 80%.

The next assay deals with T2, B-lymphocyte antigen CD19 (CD19) (human, UniProt P15391 20-556).
T2 sequence (looked up): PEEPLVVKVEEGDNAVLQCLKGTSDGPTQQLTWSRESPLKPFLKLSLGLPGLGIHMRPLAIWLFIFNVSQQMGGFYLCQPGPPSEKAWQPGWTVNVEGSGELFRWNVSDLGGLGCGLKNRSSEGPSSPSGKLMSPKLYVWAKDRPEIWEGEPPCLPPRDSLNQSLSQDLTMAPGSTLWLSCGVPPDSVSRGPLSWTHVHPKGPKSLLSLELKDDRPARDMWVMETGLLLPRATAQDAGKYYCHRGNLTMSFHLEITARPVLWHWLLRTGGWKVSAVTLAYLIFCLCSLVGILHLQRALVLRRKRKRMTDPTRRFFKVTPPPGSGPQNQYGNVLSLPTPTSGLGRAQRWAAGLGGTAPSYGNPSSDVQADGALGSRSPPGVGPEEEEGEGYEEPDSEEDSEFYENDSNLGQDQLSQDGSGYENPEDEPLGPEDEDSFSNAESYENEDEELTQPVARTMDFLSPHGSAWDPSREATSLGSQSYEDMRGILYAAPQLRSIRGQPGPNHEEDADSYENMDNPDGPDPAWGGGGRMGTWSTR
Briefly: cell-based or functional assay.
On to B2, for which the “inhibition of IFN-γ production by CAR T cells when JeKo-1 target cells were preincubated with both FMC63 scFv and sBAFF (20 µg/mL each), relative to target-only co-culture; legend: ++ = High, >80%” value is above 80%.
The same measure, in the same setting: for B5 the value was above 80%.

The values above are taken from patent US20240226298A1 (JUNO THERAPEUTICS, published 2024).
